Experimental findings from article PMC9163697, “Mechanistic insights into the activation of the IKK kinase complex by the Kaposi’s sarcoma herpes virus oncoprotein vFLIP” (The Journal of Biological Chemistry, 2022) are described below.

The target in data set [1] is T1, WT vFLIP(1–177) (Kaposi's sarcoma-associated herpes …, UniProt Q76RF1 1-177).
T1 construct: vFLIP of the Kaposi's sarcoma-associated herpes virus (KSHV), residues 1-177; also called recombinant vFLIP; source: mutants said to be expressed in E. coli
The data set is described as follows: native MS; proteins and complexes exchanged into 200 mM ammonium acetate pH 8.5, 3.2 μM, nanoelectrospray, Synapt QToF; collision-induced dissociation of selected species. Particulars: both partners purified.

Data set [2] concerns the molecule itself. The description is as above.
Data set [3] has as its target T1, WT vFLIP(1–177). The data set is described as follows: native gel or EMSA; blue native gel (4–20%), 8–10 μg of purified complexes of IKKγ(150–272) with vFLIP or complexes assembled from the concentrated proteins; bands excised and analysed by SDS-PAGE. Particulars: both partners purified. For orientation: Mobility shift assays separate free from complexed probe on a gel.

Usually stoichiometry N stands for the number of molecules, sites or subunits per partner or assembly.

B1: IKKγ(150–272) (domain or fragment, UniProt Q9Y6K9 150-272, looked up)
chain: LGELQESQSRLEAATKECQALEGRARAASEQARQLESEREALQQQHSVQVDQLRMQGQSVEAALRMERQAASEEKRKLAQLQVAYHQLFQEYDNHIKSSVVGSERKRGMQLEDLKQQLQQAEE
notes: IKKγ (Nemo), regulatory subunit of the IKK kinase complex, residues 150-272; also called Nemo; WT IKKγ
Take B1: the “stoichiometry N” value was 0.5 vFLIP per IKKγ with WT vFLIP(1–177) [1] and 1 vFLIP per IKKγ in the data set with WT vFLIP(1–177) [3]. Also, the binding result in data set [2] was “binds”.
